Patent publication US20250333503A1

Legend:
[1] = target: mouse PVRL2 endogenously expressed on B16-F10 cells (mouse) (UniProt P32507); assay: FACS dose response on B16-F10 cells
[2] = target: mouse PVRL2 splice variant 2 on HEK293 cells (mouse); assay: FACS dose response on HEK293 OX mouse PVRL2

mouse PVRL2 endogenously expressed on B16-F10 cells (mouse), sequence (P32507 32-530): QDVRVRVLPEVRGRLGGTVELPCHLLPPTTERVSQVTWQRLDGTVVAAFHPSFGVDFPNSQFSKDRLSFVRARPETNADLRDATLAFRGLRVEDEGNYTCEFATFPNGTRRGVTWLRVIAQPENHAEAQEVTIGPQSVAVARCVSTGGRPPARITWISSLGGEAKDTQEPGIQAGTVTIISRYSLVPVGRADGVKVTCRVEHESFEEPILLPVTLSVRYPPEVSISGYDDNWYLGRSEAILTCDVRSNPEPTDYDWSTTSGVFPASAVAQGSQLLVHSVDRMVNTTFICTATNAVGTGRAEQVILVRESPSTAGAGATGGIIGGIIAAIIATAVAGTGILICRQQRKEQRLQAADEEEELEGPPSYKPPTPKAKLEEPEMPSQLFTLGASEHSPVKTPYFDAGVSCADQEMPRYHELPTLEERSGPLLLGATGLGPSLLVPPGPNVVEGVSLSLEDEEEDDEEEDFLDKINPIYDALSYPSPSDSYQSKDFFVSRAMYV

## PVRIG mECD-mIg fusion protein (ECD of mouse PVRIG fused to Fc of mouse IgG2a) (Fc fusion)
[1]
  concentration at saturation of binding: 12.5 µg/mL
[2]
  concentration at saturation of binding: 12.5 µg/mL
